According to patent US6436691B1, “Chemical compounds” (Zeneca Limited, priority 1995, dated 2002):
Positions count from the first letter of the chain named. In names and notes the source's numbering stands.

Legend:
[1] = Conversion of Hipp-Asp by periplasmic shockate of HCPB mutants, 24 h (Example 18); assay type: biochemical; details: shockate concentration in reaction mixture 50 %; 24 h at 37° C.
Description: (§1) The activity of [G251T,D253K]HCPB was measured using the assay conditions described in Example 17 but using either 50 μl of a neat or 1 in 10 or 1 in 100 dilution of [G251T,D253K]HCPB crude E.coli periplasmic shockate (shockate) sample in place of purified enzyme. Samples were incubated for 24 h at 37° C. […] For other HCPB mutants, the reaction volume was 250 μl and contained 125 μl of neat shockate or 1 in 50 dilution of shockate. The shockate samples were prepared as described in Example 16. The amount of Hippuric acid produced in 24 h was quantified by HPLC as described in Example 17 and the results are shown in Table 6 and are expressed as the percentage conversion of substrate into product in 24 h at 37° C.

[2] = Km and kcat of HCPB mutants with Hipp-Glu (Example 7); assay type: biochemical; details: Hipp-Glu 0.25-8.0 mM; pH 7.5; 5 h at 37° C.
Summary of the method: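 Hipp-Glu (0.25-8.0 mM) or Hipp-Asp (0.25-5.0 mM) in 0.025 M Tris-HCl, pH 7.5, was incubated with the mutant enzymes for 5 h at 37° C. Reactions were quenched with methanol/water containing 0.2% TFA, and hippuric acid was quantified by HPLC. Km and Vmax were obtained by curve fitting.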

[3] = Conversion of Hipp-Arg to hippuric acid by mutant and native human CPB, HPLC assay (Example 6); assay type: biochemical; details: 5 hr at 37° C.; 4 μg enzyme
Description: (§2) Purified mutants of human CPB (D253K and D253R; Examples 1-3) and native human CPB, produced as described in Reference Example 12, were assayed for their ability to convert either hippuryl-L-aspartic acid (Hipp-Asp—Reference Example 2), hippuryl-L-glutamic acid (Hipp-Glu—Reference Example 1) or hippuryl-L-arginine (Sigma Chemical Company—cat no. H6625) to hippuric acid using a HPLC based assay.
(§3) The reaction mixture (250 μl) contained 4 μg human CPB (native or mutant) and 0.5 mM Hipp-Asp or Hipp-Glu in 0.025 M Tris-HCL, pH 7.5. Samples were incubated for 5 hr at 37° C. The reactions were terminated by the addition of 250 μl of 80% methanol, 20% distilled water, 0.2% trifluoro acetic acid and the amount of hippuric acid generated was quantified by HPLC.
(§4) HPLC analysis was carried out using a Hewlett Packard 1090 Series 11 (with diode array) HPLC system. Samples (50 μl) were injected onto a Hichrom Hi-RPB column (25 cm) and separated using a mobile phase of 40% methanol, 60% distilled water, 0.1% trifluoro acetic acid at a flow rate of 1 ml/min. The amount of product (hippuric acid) produced was determined from calibration curves generated with known amounts of hippuric acid (Sigma-H6375). The results are shown in Table 1 and are expressed as the percentage conversion of substrate into product in 5 hr at 37° C. with 4 μg enzyme.

[4] = Conversion of Hipp-Glu to hippuric acid by mutant and native human CPB, HPLC assay (Example 6); assay type: biochemical; details: 5 hr at 37° C.; 4 μg enzyme; 0.5 mM substrate
Description: as §2, §3, §4

[5] = Conversion of Hipp-Glu by purified HCPB mutants, 30 minutes, HPLC (Example 17); assay type: biochemical; details: 0.5 mM substrate, 30 minutes at 37° C.
Summary of the method: (§5)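 Purified human CPB mutants were incubated with hippuryl-L-Arg, -Glu or -Asp for 30 min at 37 °C, then stopped with acidic aqueous methanol. Hippuric acid was quantified by HPLC (20% methanol/50 mM phosphate pH 6.5, 230 nm). Values are % substrate converted to hippuric acid in 30 min.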

[6] = Conversion of Hipp-Arg by purified HCPB mutants, 30 minutes, HPLC (Example 17); assay type: biochemical; details: 0.5 mM substrate, 30 minutes at 37° C.
Summary of the method: as §5

[7] = Conversion of prodrug of Example 24 to drug of Example 25 by HCPB mutants, HPLC (Example 20); assay type: biochemical; details: enzyme 15 μg/ml; 0.5 mM prodrug of Example 24; 5 minutes at 37° C.
Summary of the method: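 Reactions stopped with MeCN plus 0.2% TFA, with [Q54R,D145A,D253K] and [G251T,D253K]HCPB mutants used at 0.75 μg per reaction. Drug formed from prodrug quantified by HPLC (70% MeCN, 30% water, 0.1% TFA; detection 260 nm) against drug calibration curves.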

[8] = Conversion of Hipp-Asp to hippuric acid by mutant and native human CPB, HPLC assay (Example 6); assay type: biochemical; details: 5 hr at 37° C.; 4 μg enzyme; 0.5 mM substrate
Description: as §2, §3, §4

[9] = Conversion of Hipp-Asp by purified HCPB mutants, 30 minutes, HPLC (Example 17); assay type: biochemical; details: 0.5 mM substrate, 30 minutes at 37° C.
Summary of the method: as §5

[10] = Conversion of Hipp-Glu by periplasmic shockate of HCPB mutants, 24 h (Example 18); assay type: biochemical; details: shockate concentration in reaction mixture 50 %; 24 h at 37° C.
Description: as §1

[11] = Km and kcat of HCPB mutants with Hipp-Asp (Example 7); assay type: biochemical; details: Hipp-Asp 0.25-5.0 mM; pH 7.5; 5 h at 37° C.
Description: Hipp-Glu and Hipp-Asp were diluted in range 0.25-8.0 mM and 0.25-5.0 mM respectively in 0.025 M Tris-HCL buffer, pH 7.5. Where necessary substrate samples were adjusted to pH 7.5 with 1M NaOH.
Samples were incubated for 5 h at 37° C. Reactions were terminated by the addition of 500 μl methanol/distilled water (80/20) containing 0.2% TFA. The amount of hippuric acid produced was quantified by HPLC as described in Example 6.
Km and Vmax values were calculated using the ENZFITTER software programme (Biosoft, Perkin Elmer).

[12] = Conversion of Hipp-Arg by periplasmic shockate of HCPB mutants, 24 h (Example 18); assay type: biochemical; details: shockate concentration in reaction mixture 50 %; 24 h at 37° C.
Description: as §1

[13] = test system: LoVo colorectal tumour cells
[14] = Conversion of glutamic acid prodrug to intermediate by mutant and native HCPB, HPLC assay (Example 8); assay type: biochemical; details: prodrug 0.25-5.0 mM
[15] = Activity against Hipp-Arg in crude E. coli periplasmic shockate relative to mature HCPB (Example 16); assay type: biochemical
Excerpt: A number of other mutant HCPBs have been constructed in a similar manner to the methods described in Reference Examples 7 and 8, and Examples 12, 13, 14 and 15. In each case oligos were constructed to introduce specific changes in the gene sequence by methods similar to those described above. In some cases additional mutations were identified upon complete sequencing of the mutated gene, and these were presumably introduced during the PCR reactions. Mutants with enzyme activity against substrate analogues (see Example 18 below) have been identified, and examples of these are given in Table 4 below. […] This material is subsequently referred to as periplasmic shockate or shockate and is prepared by the following procedure.
1. A single colony was used to inoculate 75 ml of L-broth nutrient media containing 10 μg/ml tetracycline and arabinose to a final concentration of 0.01% (w/v). […]
The activity of [G251T,D253K]HCPB was measured using the assay conditions described in Example 17 but using either 50 μl of a neat or 1 in 10 or 1 in 100 dilution of [G251T,D253K]HCPB crude E.coli periplasmic shockate (shockate) sample in place of purified enzyme. […] The amount of Hippuric acid produced in 24 h was quantified by HPLC as described in Example 17 and the results are shown in Table 6 and are expressed as the percentage conversion of substrate into product in 24 h at 37° C.

O=C(O)CCC(=O)Oc1ccc(N(CCCl)CCCl)cc1
melting point: 98 to 100 °C

B1: D253K HCPB: mature HCPB with aspartate 253 changed to lysine, C-terminal (His)6-c-myc tag (protein, UniProt P15086 111-417, looked up, variant D253K)
Carboxypeptidase B: ATGHSYEKYNKWETIEAWTQQVATENPALISRSVIGTTFEGRAIYLLKVGKAGQNKPAIFMDCGFHAREWISPAFCQWFVREAVRTYGREIQVTELLDKLDFYVLPVLNIDGYIYTWTKSRFWRKTRSTHTGSSCIGTDPNRNFDAGWCEIGASRNPCDETYCGPAAESEKETKALADFIRNKLSSIKAYLTIHSYSQMMIYPYSYAYKLGENNAELNALAKATVKELASLHGTKYTYGPGATTIYPAAGGSKDWAYDQGIRYSFTFELRDTGRYGFLLPESQIRATCEETFLAIKYVASYVLEHLY
modifications: (His)6-c-myc tag
Hipp-Asp (% conversion) [1]: 2.0% | Km [2]: 5.3 mM | kcat, Hipp-Glu [2]: 3.8 s⁻¹ | Hipp-Arg (% conversion to Hippuric acid) [3]: <2% | Hipp-Glu (% conversion to Hippuric acid) [4]: 91% | Hipp-Glu (% conversion) ([5]; enzyme 2.5 μg/ml): 14.6% | Hipp-Glu (% conversion) ([5]; enzyme 25 μg/ml): 79% | Hipp-Arg (% conversion) ([6]; enzyme 2.5 μg/ml): 0% | Hipp-Arg (% conversion) ([6]; enzyme 25 μg/ml): 0% | Prodrug Hydrolysis (%) [7]: 70.4% | drug concentration at end of reaction [7]: 0.352 mM | Hipp-Asp (% conversion to Hippuric acid) [8]: 78% | Hipp-Asp (% conversion) ([9]; enzyme 2.5 μg/ml): 2.9% | Hipp-Asp (% conversion) ([9]; enzyme 25 μg/ml): 22% | Hipp-Glu (% conversion) [10]: 7.4% | Km [11]: 2.7 mM | kcat, Hipp-Asp [11]: 0.26 s⁻¹ | Hipp-Arg (% conversion) [12]: 0% | cytotoxicity of the glutamic acid prodrug with enzyme added ([13]; 100 μg enzyme added to assay wells containing glutamic acid prodrug): comparable to that of the active drug | toxicity of prodrug of Example 21 with enzyme added ([13]; 2.4 to 11.75 μg/ml enzyme added to prodrug 500 μM, FIG. 16): matched that seen with 200 μM of the active drug | kcat, glutamic acid prodrug [14]: 0.016 s⁻¹ | Vmax, glutamic acid prodrug ([14]; enzyme 0.25 mg/ml): 0.000117 mM/s

B2: C288S: HCPB mutant with C288S (protein, UniProt P15086 111-417, looked up, variant C288S)
Carboxypeptidase B: B1 Carboxypeptidase B with K253D, C288S
Hipp-Arg, activity relative to mature HCPB [15]: c (activity 75% of mature HCPB (described in Reference Examples 7 and 8))

B3: C288A: HCPB mutant with C288A (protein, UniProt P15086 111-417, looked up, variant C288A)
Carboxypeptidase B: B1 Carboxypeptidase B with K253D, C288A
Hipp-Arg, activity relative to mature HCPB [15]: d (activity 25% of mature HCPB (described in Reference Examples 7 and 8))
